Reference: patent publication US20210139607A1 (JACKSON LABORATORY, published 2021)

Molecular target: T1, human N-glycanase 1 (NGLY-1) (human, UniProt Q96IV0 2-654)
T1 construct: Endogenous protein in cell lysates, denatured on immunoblots; also called human NGLY1 protein
T1 sequence (looked up): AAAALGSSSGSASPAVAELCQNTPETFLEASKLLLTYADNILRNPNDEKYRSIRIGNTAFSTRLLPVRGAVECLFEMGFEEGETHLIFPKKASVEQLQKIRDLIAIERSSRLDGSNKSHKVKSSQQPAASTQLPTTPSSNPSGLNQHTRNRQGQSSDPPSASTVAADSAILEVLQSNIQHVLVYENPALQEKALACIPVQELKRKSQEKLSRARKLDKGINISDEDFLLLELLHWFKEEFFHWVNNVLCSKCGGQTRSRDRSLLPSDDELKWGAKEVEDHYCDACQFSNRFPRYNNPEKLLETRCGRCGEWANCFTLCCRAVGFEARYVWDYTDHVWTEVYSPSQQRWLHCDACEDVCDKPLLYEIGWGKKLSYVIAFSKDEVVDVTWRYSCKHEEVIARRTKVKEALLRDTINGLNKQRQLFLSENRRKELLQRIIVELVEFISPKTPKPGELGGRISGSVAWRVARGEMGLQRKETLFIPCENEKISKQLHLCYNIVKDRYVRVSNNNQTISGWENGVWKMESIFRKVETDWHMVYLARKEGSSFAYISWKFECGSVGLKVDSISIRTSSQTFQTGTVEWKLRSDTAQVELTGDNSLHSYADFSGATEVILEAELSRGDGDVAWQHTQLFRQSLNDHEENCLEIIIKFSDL
Assay: immunoblot on isogenic human NGLY1 null and wild type iPS cell lines
Protocol: The conjugate was injected into female BALB/cJ mice at a dose of 10 μg per mouse with Alum adjuvant. Mice were immunized by i.p injection three times approximately two (2) weeks apart. Ten days after the third immunization, splenocytes were isolated and fused with SP2 myeloma cells to create hybridoma cell lines. Hybridomas were cultured in 96-well plates and supernatants screened on protein arrays and by ELISA. Positive clones were further validated by western blot using lysates prepared from C57BL/6J and the CRISPR/Cas9 generated null strain as positive and negative controls. Additional immunoblots were used to identify additional clones that generated antibodies capable of cross reacting with human NGLY1 protein. Isogenic human derived NGLY1 null and wild type iPS cell lines providing positive and negative controls evaluation of anti-human NGLY1 cross-reactivity were provided. A single hybridoma gave rise to clone 5G8 that generated an antibody that was specific to both murine and human NGLY1 protein and was used for subsequent studies.

B1: mouse anti-NGly-1 monoclonal antibody, clone 5G8 (antibody, V domains shown)
VH: QVQLQQSGAELVRPGTSVKVSCKASGYAFINYLIEWVKQRPGQGLEWIGIISPGSGSTNYNEEFRGRATLTADRSSSTAYMQLSSLTSDDSAVYFCARGGLTHYSGSTYEEGFDFWGQGTTLTVSS
VL: QAVVTQESALTTSPGETVTLTCRSSTGAVTTTNYANWVQEKPDHLFTGLIGGTNNRAPGVPARFSGSLIGDKAALTITGAQTDDEAIYFCALWYSNRWVFGGGTKLTVLG
notes: also called anti-NGly-1 monoclonal antibody of the present disclosure; Mouse monoclonal (anti-mouse peptide), JAX Monoclonal Service
binding result: binds
